B1: ETS2 (parent)
chain: TSGKRYVYRFVCDLQNLLGFTPEE

Variants of: B1
Assay: protein stability index of a GFP-peptide fusion (GPS, HEK-293T) (PSI 1-6); higher = more stable
Conditions: c terminus: a fixed tail appended
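Further: lentivirally expressed fusions sorted by FACS into six bins by GFP to DsRed ratio, PSI derived from sequencing read proportions per bin multiplied by bin number.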

In order of rising protein stability index:
1. TSGKRYVYFFVCDLQNLLGFTPEE  1.06
2. TSGKRYVYRFVMDLQNLLGFTPEE  1.25
3. TSGKRYVYRFVCDLQNLLEFTPEE  1.31
4. TSGKRYVYRFVCDLQNLLCFTPEE  1.32
5. TSGKRYVYRFVCDLQNLLHFTPEE  1.34
6. TSGKRGVYRFVCDLQNLLGFTPEE  1.35
7. TSGKRYVYRFVCDLQNLLKFTPEE  1.36
8. TSGIRYVYRFVCDLQNLLGFTPEE  1.36
9. TSGKRAVYRFVCDLQNLLGFTPEE  1.43
10. TSGKRYVYAFVCDLQNLLGFTPEE  1.45
11. TSGKRYVYRFVCDLQNLLGFTEEE  1.46
12. TSGKRYVYLFVCDLQNLLGFTPEE  1.48
13. TSGKRYVYRFVCDLQNLLGDTPEE  1.48
14. TSPKRYVYRFVCDLQNLLGFTPEE  1.5
15. TSGKRYVYRFVCDLQLLLGFTPEE  1.52
16. TSGKRDVYRFVCDLQNLLGFTPEE  1.52
17. TSGKRYVYRFVCSLQNLLGFTPEE  1.57
18. TSGKRYVYRFVCDLQNLLGITPEE  1.61
19. TSGKRYVYRFVCDLQNLLGFVPEE  1.62
20. TSGKRYVYRFVCDLQNLLGMTPEE  1.62
21. TSLKRYVYRFVCDLQNLLGFTPEE  1.65
22. TSGKRYVYRFVCDLQNLLGFRPEE  1.67
23. TSGKRYVYRFVCDLQNLPGFTPEE  1.68
24. TSGKRYVYRFVCDLQCLLGFTPEE  1.7
25. TSGKRYVYRFVCDLQNLLGFQPEE  1.7
26. TSGKRYVYRFVDDLQNLLGFTPEE  1.72
27. TSGERYVYRFVCDLQNLLGFTPEE  1.72
28. TSGKRYVYRFVCDLQELLGFTPEE  1.74
29. TAGKRYVYRFVCDLQNLLGFTPEE  1.74
30. TSGMRYVYRFVCDLQNLLGFTPEE  1.74
31. TSGKRYVYRFVCDLQNLLGFTPEI  1.75
32. TSGKRYVLRFVCDLQNLLGFTPEE  1.75
33. TSGKRYVYRFVYDLQNLLGFTPEE  1.77
34. TRGKRYVYRFVCDLQNLLGFTPEE  1.77
35. TSGKRYVYNFVCDLQNLLGFTPEE  1.77
36. TSGKRYVYRFVCNLQNLLGFTPEE  1.77
37. TSEKRYVYRFVCDLQNLLGFTPEE  1.78
38. TSGKRYVYRFVCHLQNLLGFTPEE  1.79
39. TSGKRYVYRFVCDLQNLLGFTSEE  1.8
40. TSGKRYVYRLVCDLQNLLGFTPEE  1.8
41. TSGKRYVYRFVCDLQNLLGFTPEK  1.81
42. TSGKRYVYRFVCDLQNLLFFTPEE  1.82
43. TSGKRYVYRFVCDLQNLLMFTPEE  1.82
44. TVGKRYVYRFVCDLQNLLGFTPEE  1.83
45. TSGKRYVYRFVCDLQNLFGFTPEE  1.84
46. TSGKRYVYKFVCDLQNLLGFTPEE  1.85
47. TSGKRYVYRFVCDLENLLGFTPEE  1.85
48. TSGKRYVYRFVCDLQNLLGRTPEE  1.87
49. TSGKRYVYRFVCDLQNLLGFTWEE  1.89
50. TSGKRYVYRFVCDLQNVLGFTPEE  1.91
51. TSGKRYVYRFVCDLQNLTGFTPEE  1.91
52. TSGKRYVYRFVCDLTNLLGFTPEE  1.91
53. TSGKRYVYRFVCDLQNDLGFTPEE  1.92
54. PSGKRYVYRFVCDLQNLLGFTPEE  1.94
55. QSGKRYVYRFVCDLQNLLGFTPEE  1.94
56. TSGKRYVYRFQCDLQNLLGFTPEE  1.94
57. TSGKRYVYRFVCDLQNLLGFTPER  1.96
58. TSGKRYVYRFVIDLQNLLGFTPEE  1.96
59. TSGKRYVYRFVCDLQNLLLFTPEE  1.96
60. TSGKRYVYRFVCDLHNLLGFTPEE  1.96
61. TSGKRYVYRFVCDLQNLLGHTPEE  1.97
62. TSGKRYQYRFVCDLQNLLGFTPEE  1.98
63. TSGKRYVYRFVCDLQNLAGFTPEE  1.99
64. TSGVRYVYRFVCDLQNLLGFTPEE  2
65. TSGKRYVYRFVCDLQKLLGFTPEE  2.02
66. TSGKRYVYRFSCDLQNLLGFTPEE  2.02
67. TSGKRYVYRFVCDLQNLLGFTPEH  2.03
68. TSGKRYVYRFVLDLQNLLGFTPEE  2.03
69. TSGKRYVYRFVCDLKNLLGFTPEE  2.03
70. TSGKRYVYRFVCDLQNLLGFTPDE  2.04
71. TSGKRYVYRFVCDLQQLLGFTPEE  2.04
72. TSGKRYVYRFVCDLQNLEGFTPEE  2.04
73. TSGKRYVYRFVPDLQNLLGFTPEE  2.05
74. TSGKRYVYRFVCDLQWLLGFTPEE  2.05
75. TSGKRYVYRFVCDLQNLLGFMPEE  2.05
76. TSGKDYVYRFVCDLQNLLGFTPEE  2.05
77. TSGHRYVYRFVCDLQNLLGFTPEE  2.06
78. TSGKRYVYRFVCDLSNLLGFTPEE  2.07
79. TSMKRYVYRFVCDLQNLLGFTPEE  2.08
80. TSIKRYVYRFVCDLQNLLGFTPEE  2.11
81. TSGKRYVKRFVCDLQNLLGFTPEE  2.11
82. HSGKRYVYRFVCDLQNLLGFTPEE  2.12
83. TSGKRYVYRFVCDLQNLLGFSPEE  2.13
84. TSGKRYVYRFVCDLNNLLGFTPEE  2.13
85. TSGKRYVYRFWCDLQNLLGFTPEE  2.14
86. TSGKRYVYRFVCDLQNLLGFTPGE  2.15
87. TSGKRYVYRFVCDLQNLLGFWPEE  2.15
88. TSGKRYVYRFVCDLQNLLGFTTEE  2.16
89. TSGKRYVYRFVCDLQFLLGFTPEE  2.16
90. TSGKRYVYRFVCDLQNLLGFTPTE  2.17
91. TSGKRYVYRFVCDLQNLLGFTPES  2.21
92. TSGKRYVYRFVWDLQNLLGFTPEE  2.21
93. TSGKRYVYRFVCLLQNLLGFTPEE  2.22
94. TSGKRYVYRFVCCLQNLLGFTPEE  2.22
95. TSGKRYLYRFVCDLQNLLGFTPEE  2.22
96. TSGKRYVYRFVCDNQNLLGFTPEE  2.23
97. TSGKRYVYRFVCDLANLLGFTPEE  2.23
98. TSGKRYVYRFVCDLQNLLGFTIEE  2.24
99. TSGDRYVYRFVCDLQNLLGFTPEE  2.24
100. TPGKRYVYRFVCDLQNLLGFTPEE  2.25
101. TSGKRYVYRFVCDLQNLLGFKPEE  2.25
102. TSGKRYVYRTVCDLQNLLGFTPEE  2.26
103. TSGKRCVYRFVCDLQNLLGFTPEE  2.26
104. TSGKRYVPRFVCDLQNLLGFTPEE  2.28
105. TSGKRYVYRFVCDLQNLLGFTPYE  2.29
106. RSGKRYVYRFVCDLQNLLGFTPEE  2.29
107. TSGKRYVYRFVCDLQNLNGFTPEE  2.29
108. TSGARYVYRFVCDLQNLLGFTPEE  2.29
109. TSQKRYVYRFVCDLQNLLGFTPEE  2.31
110. TSGKRYVYRFVHDLQNLLGFTPEE  2.31
111. TSGKRRVYRFVCDLQNLLGFTPEE  2.31
112. TSGKRYVYRFVCDLQNLLGFTPEC  2.32
113. TSGKRYVYRFVCVLQNLLGFTPEE  2.33
114. TSGNRYVYRFVCDLQNLLGFTPEE  2.34
115. TSGKRYVYRFVCDHQNLLGFTPEE  2.34
116. TSGKRYVYRFVCDLQNLLGFTMEE  2.35
117. TSGKRYVYRFVCDLQNLLGFTPME  2.35
118. TSGKRYVYRFTCDLQNLLGFTPEE  2.36
119. TSGKRYVYRFVCYLQNLLGFTPEE  2.37
120. TSGKRYVYRFVCDLQNYLGFTPEE  2.37
121. TSGKRYVYRFVCDLQGLLGFTPEE  2.38
122. TSGKRYVYRFVVDLQNLLGFTPEE  2.39
123. TSGKRYVYVFVCDLQNLLGFTPEE  2.4
124. TSGKRYVYRFVCDIQNLLGFTPEE  2.41
125. TSGKRYVYRFVCDLQNLLGFTPIE  2.43
126. TSGKRYVYRFVCDLQNKLGFTPEE  2.43
127. TSGKRYVYRFVCDLINLLGFTPEE  2.43
128. TSGKRYVYRFVCDLQSLLGFTPEE  2.46
129. TSGKRYVYRFVCQLQNLLGFTPEE  2.46
130. TSGKRYVYRFVCDLQHLLGFTPEE  2.49
131. TSGKRYVYRFVCDLQNLLGFTPEP  2.52
132. TSGKRYVYRFVCDWQNLLGFTPEE  2.53
133. TSGGRYVYRFVCDLQNLLGFTPEE  2.54
134. TSGKRYVYRGVCDLQNLLGFTPEE  2.57
135. TSGKRYVYRFVQDLQNLLGFTPEE  2.57
136. TSGKRYTYRFVCDLQNLLGFTPEE  2.57
137. TSGKRYVYRFVRDLQNLLGFTPEE  2.58
138. TSGCRYVYRFVCDLQNLLGFTPEE  2.58
139. TSGKRYVYRFDCDLQNLLGFTPEE  2.59
140. TMGKRYVYRFVCDLQNLLGFTPEE  2.6
141. ISGKRYVYRFVCDLQNLLGFTPEE  2.6
142. TSGKRYVYRFVCDLQNHLGFTPEE  2.61
143. TSGKRVVYRFVCDLQNLLGFTPEE  2.61
144. TSGKRYVYRFECDLQNLLGFTPEE  2.61
145. TSGKRYWYRFVCDLQNLLGFTPEE  2.61
146. TSGKRYVYRFVCDLQNLLQFTPEE  2.65
147. TSGKRYVYRFVCDLQNLLGFTPEA  2.69
148. TSGKRYVYRFVCDTQNLLGFTPEE  2.69
149. TSGKRYVYRQVCDLQNLLGFTPEE  2.7
150. TSGKRYVYRFVCDLPNLLGFTPEE  2.7
151. TSGKRYVYRFVCDLQNLLGFTPET  2.71
152. TSGWRYVYRFVCDLQNLLGFTPEE  2.72
153. TSGKRYVYRFVCDLQNFLGFTPEE  2.73
154. TFGKRYVYRFVCDLQNLLGFTPEE  2.74
155. TSGKRYVYRFVCDLQNLLGFHPEE  2.75
156. TSNKRYVYRFVCDLQNLLGFTPEE  2.77
157. TSGKRYVYRFVCDSQNLLGFTPEE  2.77
158. TSGKRYVYRFVCDLQNLLGYTPEE  2.77
159. TSGKRYVDRFVCDLQNLLGFTPEE  2.78
160. TSGKRYVYRFVCDLQNRLGFTPEE  2.79
161. TSGKRYVYRFVCDLQNLLGFTLEE  2.85
162. TSGKRYVYRFVCDLQNLLGFTPWE  2.88
163. TSGKRYVYRFVCDLQNLQGFTPEE  2.88
164. TSGKRFVYRFVCDLQNLLGFTPEE  2.91
165. TSGKRYVMRFVCDLQNLLGFTPEE  2.93
166. TSAKRYVYRFVCDLQNLLGFTPEE  2.96
167. TSGKRYVYRFVKDLQNLLGFTPEE  2.98
168. TSGKRYVYRFVCTLQNLLGFTPEE  2.99
169. TSGKRYVYRFVCDLRNLLGFTPEE  3
170. TSGKRYVYRFVCDLQNLLAFTPEE  3.01
171. TSGKRYVYRFVCDLQNLLGFTPHE  3.12
172. TSGKRYVYRFVCDLQNELGFTPEE  3.13
173. TSGKRYVYRFCCDLQNLLGFTPEE  3.14
174. TSGKRYVYRFVCDLQNLLGFTYEE  3.16
175. TSGKRYVYRKVCDLQNLLGFTPEE  3.16
176. TSGKKYVYRFVCDLQNLLGFTPEE  3.18
177. TSGKIYVYRFVCDLQNLLGFTPEE  3.19
178. TSGKRYVYRFVCDLQVLLGFTPEE  3.2
179. TIGKRYVYRFVCDLQNLLGFTPEE  3.22
180. TSGKNYVYRFVCDLQNLLGFTPEE  3.24
181. TSGKRLVYRFVCDLQNLLGFTPEE  3.25
182. TSGKRYVNRFVCDLQNLLGFTPEE  3.26
183. TSGKRYVYRFVNDLQNLLGFTPEE  3.4
184. TSGKRYVYRFVCDLGNLLGFTPEE  3.45
185. TSGKRYVYRFVCDPQNLLGFTPEE  3.53
186. TSGKRYVYRFVCDLQNPLGFTPEE  3.57
187. TSGKRYVYRFVCDAQNLLGFTPEE  3.91
188. TSGKRIVYRFVCDLQNLLGFTPEE  4.21

Reference: the supplement of paper PMC10567573
